Assay results published in patent US20180364253A1 (published 2018).
Bridge positions count the residues as written; N and C are the ends. Square brackets hold non-standard residues; d marks the D form. Primed or numbered codes have the meaning given here. Ends that are not written are not given here. * marks the point of attachment. Biotin = O=C1N[C@H]2[C@H](CS[C@H]2CCCCC(=O)*)N1; Lys(N3) = [N-]=[N+]=NCCCC[C@H](N)C(=O)O; PEG3′ = PEGylated amino acid linker; Biotin′ = not defined here; Pra = C#CC[C@H](N)C(=O)O

Key:
[1] = molecular target: T1, full-length His-tagged IL-17F protein (ab167911, Abcam) (human, UniProt Q96PD4 31-163); test: surface-immobilized macrocycle contacted with IL-17F, IL-17A or no protein
T1 construct: Bought protein, called 'full-length'; also called human IL-17F protein; recombinant human IL-17F protein; not shown: His tag of the bought protein
T1 chain: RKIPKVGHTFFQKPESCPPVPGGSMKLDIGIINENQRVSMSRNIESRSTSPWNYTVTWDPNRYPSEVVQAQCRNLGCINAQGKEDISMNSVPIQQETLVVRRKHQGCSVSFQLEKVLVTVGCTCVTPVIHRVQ

[2] = molecular target: T2, His6-PEG3-FFQKPESSPPVPGGS (human, not fully specified (N-terminus); printed as His6-PEG3-FFQKPESSPPVPGGS); test: point ELISA with His-tagged epitope peptides scrambled at the N- or C-terminus
T2 construct: Chemically synthesized
T2 peptide: FFQKPESSPPVPGGS

[3] = molecular target: T3, His6-PEG3-SQFEKFPSPPVPGGS (not fully specified (N-terminus); printed as His6-PEG3-SQFEKFPSPPVPGGS); test: point ELISA: ligand on NeutrAvidin plate, His-tagged epitope peptide, anti-His-AP detection
T3 construct: Chemically synthesized
T3 peptide: SQFEKFPSPPVPGGS
Procedure: (§1) Assay to determine orientation of macrocycle binding to IL-17F Epitope1. […] The plate was aspirated and then washed with TBS (5×) and Wash Buffer (0.05% (v/v) Tween-20 in PBS, 1×). Chemically synthesized His-tagged IL-17F epitopes were prepared at 2 μM in Wash Buffer and incubated in the designated microwells for 90 min at room temperature. Wash Buffer without epitope was added as a control. Microwells were aspirated and subsequently washed with Wash Buffer (10×). To detect the bound IL-17F epitopes, Alkaline Phosphatase (AP)-conjugated Anti-6X His tag® antibody [HIS-1] (ab49746, Abcam) was prepared at 1:10,000 dilution and added to the microwells for 1 h at room temperature. […] AttoPhos® AP Fluorescent Substrate System (S1000, Promega) was employed to develop the microwells. […] Data are shown after subtraction of the no-epitope background.

[4] = molecular target: T4, His6-PEG3-FFQKPESSPVSPGPG (not fully specified (N-terminus); printed as His6-PEG3-FFQKPESSPVSPGPG); test: point ELISA: ligand on NeutrAvidin plate, 2 µM His-tagged epitope peptide, anti-His-AP detection
T4 construct: Chemically synthesized
T4 peptide: FFQKPESSPVSPGPG
Procedure: as §1

[5] = molecular target: T1, full-length His-tagged IL-17F protein …; test: point ELISA: ligand on NeutrAvidin plate, His-tagged IL-17F against His-tagged IL-17A as reference
Procedure: Point ELISA (IL-17F vs. IL-17A selectivity assay). […] The plate was aspirated and then washed with TBS (5×) and Wash Buffer (0.05% (v/v) Tween-20 in PBS, 1×). Full-length His-tagged IL-17F (ab167911, Abcam) and IL-17A (ab166882, Abcam) proteins were prepared at 100 and 10 nM in Wash Buffer and incubated in the designated microwells for 90 min at room temperature. Microwells were aspirated and subsequently washed with Wash Buffer (10×). To detect the bound IL-17F and IL-17A proteins, Alkaline Phosphatase (AP)-conjugated Anti-6X His tag® antibody [HIS-1] (ab49746, Abcam) was prepared at 1:10,000 dilution and added to the microwells for 1 h at room temperature. […] AttoPhos® AP Fluorescent Substrate System (S1000, Promega) was employed to develop the microwells.
(§2) For these assays, the full-length His-tagged IL-17F and IL-17A proteins were captured using the macrocyclic peptide ligands immobilized on a NeutrAvidin-coated plate.

[6] = molecular target: T1, full-length His-tagged IL-17F protein …; test: sandwich ELISA: biotinylated ligand on NeutrAvidin plate, His-tagged IL-17F titrated, anti-His-AP detection
[7] = molecular target: T2, His6-PEG3-FFQKPESSPPVPGGS; test: point ELISA: ligand on NeutrAvidin plate, 2 µM His-tagged epitope peptide, anti-His-AP detection
Procedure: as §1

[8] = molecular target: T1, full-length His-tagged IL-17F protein …; test: point ELISA: ligand on NeutrAvidin plate, 100 nM His-tagged IL-17F against His-tagged IL-17A as reference
Procedure: Point ELISA (IL-17F vs. IL-17A selectivity assay). […] The plate was aspirated and then washed with TBS (5×) and Wash Buffer (0.05% (v/v) Tween-20 in PBS, 1×). Full-length His-tagged IL-17F (ab167911, Abcam) and IL-17A (ab166882, Abcam) proteins were prepared at 100 nM and 10 nM in Wash Buffer and incubated in the designated microwells for 90 min at room temperature. Microwells were aspirated and subsequently washed with Wash Buffer (10×). To detect the bound IL-17F and IL-17A proteins, Alkaline Phosphatase (AP)-conjugated Anti-6X His tag® antibody [HIS-1] (ab49746, Abcam) was prepared at 1:10,000 dilution and added to the microwells for 1 h at room temperature. […] AttoPhos® AP Fluorescent Substrate System (S1000, Promega) was employed to develop the microwells.
as §2

[9] = molecular target: T1, full-length His-tagged IL-17F protein …; test: method not named there (same number as the ELISA EC50)
[10] = molecular target: T1, full-length His-tagged IL-17F protein …; test: fluorescence polarization in solution
[11] = molecular target: T1, full-length His-tagged IL-17F protein …; test: comparison of affinities for His-tagged IL-17F
[12] = molecular target: T1, full-length His-tagged IL-17F protein …; test: point ELISA against recombinant human IL-17F and IL-17A
[13] = molecular target: T1, full-length His-tagged IL-17F protein …; test: binding to His-tagged IL-17F human recombinant protein; method not named there (ELISA implied)
[14] = molecular target: T1, full-length His-tagged IL-17F protein …; test: comparison of affinities for His-tagged IL-17F; reference the other biligands (PEG1, PEG2, PEG4, PEG5)
[15] = molecular target: T5, Plasmodium falciparum Histidine Rich Protein-2 (Pf.HRP-2) (Plasmodium falciparum); test: method and form of the target not stated
T5 chain: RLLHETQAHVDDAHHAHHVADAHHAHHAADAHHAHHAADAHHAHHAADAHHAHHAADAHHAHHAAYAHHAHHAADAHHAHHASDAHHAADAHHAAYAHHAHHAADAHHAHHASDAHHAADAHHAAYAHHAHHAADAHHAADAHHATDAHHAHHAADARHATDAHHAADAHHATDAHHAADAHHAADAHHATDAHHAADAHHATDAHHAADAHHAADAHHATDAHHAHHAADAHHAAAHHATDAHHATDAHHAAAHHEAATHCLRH

[16] = molecular target: T5, Plasmodium falciparum Histidine Rich …; test: comparison of EC50 values
[17] = molecular target: T1, full-length His-tagged IL-17F protein …; test: fluorescence polarization in solution: IL-17F titrated against the 5-FITC-tagged macrocycle

B1: Cy(RRATS)(SEQ ID NO:9)-PEG3-biotin (peptide)
peptide: [Pra]RRATS[Lys(N3)]-{PEG3′-Biotin′}
modifications: triazole N-C
notes: also called LF1; PEG3-biotin-modified Cy(RRATS)
- selectivity for IL-17F (against IL-17A) [1]: 10 ratio
- binding result [2]: binds
- binding result [3]: no binding (tested: 2 µM epitope)
- binding result [4]: binds
- selectivity for IL-17F (against IL-17A) [5]: 2 ratio
- EC50 [6]: 66 nM

B2: Cy(RRAQS)(SEQ ID NO:10)-PEG3-biotin (peptide)
peptide: [Pra]RRAQS[Lys(N3)]-{PEG3′-Biotin′}
modifications: triazole N-C
notes: also called PEG3-biotin-modified Cy(RRAQS)
- binding result [3]: no binding (tested: 2 µM epitope)
- binding result [7]: binds
- binding result [4]: binds
- selectivity for IL-17F (against IL-17A) [5]: 2 ratio
- EC50 [6]: 52 nM

B3: Biotin-PEG3-Cy(KKGWP) (SEQ ID NO:23) (peptide)
peptide: KKGWP
modifications: not fully specified; cyclised by a triazole between flanking N-terminal Pra (L-propargylglycine) and C-terminal Az4 (L-azidolysine); N-terminal Biotin-PEG3 label
notes: also called PEG3-biotin-modified Cy(KKGWP)
- selectivity for IL-17F (against IL-17A) [8]: 4 ratio
- EC50 [6]: 24 nM

B4: Biotin-PEG3-Cy(RSYNK) (SEQ ID NO:28) (peptide)
peptide: RSYNK
modifications: not fully specified; cyclised by a triazole between flanking N-terminal Pra (L-propargylglycine) and C-terminal Az4 (L-azidolysine); Biotin-PEG3 label
notes: also called LF2; PEG3-biotin-modified Cy(RSYNK)
- Kd [9]: 15 nM
- selectivity for IL-17F (against IL-17A) [8]: 4 ratio
- EC50 [6]: 15 nM

B5: Biotin-PEG3-Cy(RSYNK)(SEQ ID NO:28)-PEG3-Cy(RRATS) (SEQ ID NO:9) (peptide)
peptide 1: {Biotin-PEG3′}-[Pra]RSYNK
peptide 2: [Pra]RRATS[Lys(N3)]
modifications: not fully specified (C-terminus); also: triazole to a chain's N/C-terminus, triazole to a chain's N/C-terminus
notes: One covalent molecule: the two macrocycles are joined by a single PEGylated amino acid (PEG3); also called Bi-LF; Cy(RSYNK)-PEG3-Cy(RRATS)
- Kd [10]: 0.252 nM
- fold improvement in affinity relative to the individual PCC macrocyclic ligands [11]: > 100 fold
- selectivity for IL-17F (against IL-17A) [12]: 4 ratio
- Kd [13]: 0.246 nM
- times stronger than the other biligands [14]: ≥ 16 fold

Binder: YKYYR (also: cyclic, mode of cyclisation not given here, also called cyclic YKYYR) [Cy(YKYYR) (SEQ ID NO:29)]
- EC50 [15]: 220 nM

B6: linked biligand of two Cy(YKYYR) (SEQ ID NO:29) PCCs with about a 1.5 nm long linker (peptide)
peptide: YKYYR
modifications: also: cyclic peptide (Cy), closure not given here, dimer: two macrocycles joined by a linker of about 1.5 nm
notes: also called the resultant linked biligand
- EC50 [15]: 20.8 nM

Binder: GWNVDL (also: cyclic peptide, closure not given here, also called cy(GWNVDL)) [cyclic PCC with variable sequence GWNVDL (SEQ ID NO:30)]
- EC50 [15]: 50 nM

B7: cy(YKYYR)(SEQ ID NO:29)-linker-cy(GWNVDL) (SEQ ID NO:30) (peptide)
peptide 1: YKYYR
peptide 2: GWNVDL
modifications: not fully specified
notes: One covalent molecule; also called the resultant biligand
- fold improvement over the better of the two ligand components [16]: 100 fold
- EC50 [15]: 0.54 nM

B8: fluorescein 5-isothiocyanate (5-FITC)-tagged LF1 (peptide)
peptide: [Pra]RRATS[Lys(N3)]
modifications: triazole N-C; numbers in words are those of the source; also: 5-FITC tag, position not given here
notes: Form of LF1 used in fluorescence polarization; also called LF1 (5-FITC-tagged)
- Kd [17]: 50 nM

B9: fluorescein 5-isothiocyanate (5-FITC)-tagged LF2 (peptide)
peptide: [Pra]RSYNK[Lys(N3)]
modifications: triazole N-C; numbers in words are those of the source; also: 5-FITC tag, position not given here
notes: Form of LF2 used in fluorescence polarization; also called LF2 (5-FITC-tagged)
- Kd [17]: 28 nM
